Reference: article PMC8445988, “Characterization of two β-galactosidases LacZ and WspA1 from Nostoc flagelliforme with focus on the latter’s central active region” (Scientific Reports, 2021)

How the values were obtained:
purified protein = substrate: O=[N+]([O-])c1ccccc1O[C@@H]1O[C@H](CO)[C@H](O)[C@H](O)[C@H]1O; experiment: purified protein
[1] = target: the molecule itself; experiment: SEC; gel filtration on an FPLC system (AKTA purifier), 20 mM Tris-HCl, 150 mM NaCl, 10% glycerol, pH 7.5; five molecular weight markers (200, 150, 66, 29, 12.4 kDa); absorbance at 280 nm

B1: Nf-LacZ (β-galactosidase LacZ of Nostoc flagelliforme) (enzyme, UniProt A0A2K8T1B7 1-619, looked up)
chain: MKLLDIQKRKVESPSNRDNQRVSSFPEAGYPRPQLQRSHWLSLNGLWKFAFDNEGRCVQPGDIEGWTHHIQVPFAPESTKSGIGDTGFHPNCWYEREFETPEGDGRLLLHFGAVDYRARVWVNGQYMIEHEGGHTPFTLDITTVLNDTGITKVTVWAQDDPGDLAKPRGKQDWQLEPHSIWYPRTSGIWQTVWIERVGRTYIDSIRWSPDFERWEVGCYAAIAGDAPAGIQIKVKLSIGNTVLANDTYEVFNGEIGRRISLSDPGIDDYRNELLWSPEKPTLMDAHIELWHNNQLLDEAKSYTAMRTVGIQRDRFMLNGRPYYLRLVLDQGYWPDSLMTAPDDGALRRDVELTKAMGFNGVRKHQKIEDPRFLYWADKLGLLVWEEMPSAYRFTPKAVERTTREWAEVIRRDISHPCIVAWVTFNESWGVPNLVETAAHRNYVLAMYHLTKTLDPGRPVIANDGWESTDTDILAIHDYDTHPQRLGHRYGPEVKLSDLFDRKRPGGRILTLDNFPHQGQPVMLTEFGGIAYAPVDNPDADKAWGYERCSNISELEIKYATLLETINDIELFSGFCYTQFTDTFQEANGLLYADRTPKFPIEAIRAATLSGQGLCTPTSC
notes: β-galactosidase LacZ homolog of Nostoc flagelliforme, NCBI AUB41471, gene COO91_07519 (KEGG); 619 amino acid residues, calculated 70.8 kDa; The number of chains in the multimer is left open (at least a trimer or larger); also called COO91_07519; AUB41471
Km (purified protein): 500 µM
stoichiometry N [1]: ≥ 3
